Data taken from the supplement of paper PMC12042874.
± gives the uncertainty stated by the source.

test: amyloid nucleation score (Sup35N fusion, yeast selection) (log enrichment); library NNK1; higher = more nucleation; inactive = no reads after selection
Procedure, shortened: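 Random libraries were run with three technical output replicates. In each, psi-negative yeast expressing Sup35N fused to peptides of 20 random codons were induced 24 hours with 100 μM copper sulfate and grown 7 days at 30°C on medium lacking adenine and uracil, and input and output plasmid inserts were Illumina-sequenced. The nucleation score is the DiMSum log enrichment of output over input reads, centred on the mode score of non-aggregating sequences, and sequences under 100 input reads were excluded.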

VWYFISTYCWDRPKVILSGV and VYACLSHSVRV are within error of each other in amyloid nucleation score: -1.39 ± 1.9 for the first, 1.05 ± 0.97 for the second.

VYFIVVVKGRSGLFMLSFGD and VYFYVQPNGFMEIGASMIAA are within error of each other in amyloid nucleation score: -0.997 ± 1.4 for the first, -0.431 ± 1.4 for the second.

Going from VYHVTWRLPF to VYINVYHYWRFSKKYVGKLL, the amyloid nucleation score falls from 3.4 ± 0.12 to 0.318 ± 0.17.

First: VYKRFSTTMCLMTSSEWVDS
Second: VYLACVSSPCLKS
The amyloid nucleation score of the first is higher: 2.45 ± 0.068 for the first, -0.2 ± 0.79 for the second.

VYLWGPKVYRSDWMGRHFK and VYVKYP are within error of each other in amyloid nucleation score: 0.855 ± 0.72 for the first, -0.125 ± 0.77 for the second.

WADTIFCTSACNNVSGIRWG and WAMSTFSVYSKRTFVARWDK are within error of each other in amyloid nucleation score: -0.681 ± 0.58 for the first, 0.048 ± 0.29 for the second.

Compared with WASEMRHGWRAHNIYVGEDC, WCCWVMCV is higher in amyloid nucleation score: 0.937 ± 0.59 for the first, 6.726 ± 0.061 for the second.

WCMATCLIMVCANYVICLVG and WCNTMFWHS are within error of each other in amyloid nucleation score: 0.927 ± 0.55 for the first, 1.09 ± 0.22 for the second.

WCRDIPWMVLNTVGRY and WDRASYIEYRSFIEWRRLPK are within error of each other in amyloid nucleation score: -0.547 ± 0.63 for the first, -0.006 ± 0.55 for the second.

WDVIYVFFIHIYQSVGS and WELVCISFLVRDTCVVI are within error of each other in amyloid nucleation score: -0.48 ± 0.85 for the first, 0.263 ± 0.47 for the second.

Going from WESDIFFMIGLVQRRQLTGP to WESSAAVDTCTILKMTEKVG, the amyloid nucleation score falls from 2.91 ± 0.17 to 0.579 ± 1.2.

WEVERDTSSPSEIVINR and WEWSTGFRCC are within error of each other in amyloid nucleation score: -0.063 ± 0.89 for the first, 0.566 ± 0.48 for the second.

WFELWKSVRGMENYAYVARC and WFGLTALGDTFYGLYFCKKL are within error of each other in amyloid nucleation score: -0.043 ± 0.29 for the first, -0.848 ± 0.78 for the second.

Going from WFPCVADINICPLGLYHSEG to WFSYYLLFRYNDNLSRAERS, the amyloid nucleation score falls from 8.033 ± 0.062 to 0.456 ± 0.61.

WGIPMVGSRGPMCTKVGFRK and WGLSQSLCHSRNNLHNWISG are within error of each other in amyloid nucleation score: 0.141 ± 0.35 for the first, 0.207 ± 0.53 for the second.

WGNFAVSWVFMEVNACRLRW and WGWHNYWDGSVVVWRSATAH are within error of each other in amyloid nucleation score: -0.323 ± 0.66 for the first, -0.414 ± 0.75 for the second.

First: WGYDTHLLMNLRNVCIGFLR
Second: WHEHSYLENSIYITRIKINV
The amyloid nucleation score of the first is lower: -0.431 ± 0.7 for the first, 3.18 ± 0.15 for the second.

Going from WHEMKY to WHFSMFREWRSS, the amyloid nucleation score falls from 1.46 ± 0.13 to -0.649 ± 0.73.

WHRRLGNMFKIASRTELRMG and WHRSIWR are within error of each other in amyloid nucleation score: -0.672 ± 1.1 for the first, 0.753 ± 0.56 for the second.

WHSIADLNLVDYEICVNFFY and WIFSAMVYDSRKLTSYDKSE are within error of each other in amyloid nucleation score: -0.75 ± 1.5 for the first, 0.543 ± 0.32 for the second.

First: WIFTREQAFFSDRCLAASSK
Second: WILPNNRMVFVLYTEQWWTF
The amyloid nucleation score of the first is lower: 0.649 ± 0.76 for the first, 2.33 ± 0.11 for the second.

Going from WKNLGQV to WKVVCNVPVVWFFLKRLHLL, the amyloid nucleation score rises from -0.327 ± 0.39 to 0.498 ± 0.38.

First: WLFSPNVFVNFCFG
Second: WLNRMFFGDLCDMAIWKMCM
The amyloid nucleation score of the first is higher: 6.913 ± 0.055 for the first, -0.217 ± 0.72 for the second.

WLSMANHLIISCGSCRFRAF and WLVLHTNLMLGCSTRSMLCA are within error of each other in amyloid nucleation score: 0.973 ± 0.44 for the first, 0.174 ± 0.5 for the second.

Compared with WLVVFVDSVYARRWCELKFL, WLWSQLVESCGRVRCSGGSG is higher in amyloid nucleation score: 0.39 ± 0.36 for the first, 1.37 ± 0.5 for the second.

WLYMRGPKVVRSCREITARA and WMKVARMYRMESRIMNRRQW are within error of each other in amyloid nucleation score: 0.413 ± 1.4 for the first, 1.13 ± 0.84 for the second.

Compared with WMRKVIPTNGTVDIETSS, WNDYAHILLKKRGGRYNLAG is lower in amyloid nucleation score: 0.438 ± 0.33 for the first, -0.907 ± 0.74 for the second.

Going from WNEADWHMCH to WNELCHQLNWCICRVAGFVK, the amyloid nucleation score falls from 1.34 ± 0.38 to -0.637 ± 0.62.

WNGLYRFCVVRAQGSFDET and WNQADGIS are within error of each other in amyloid nucleation score: -0.111 ± 0.32 for the first, -1.66 ± 2.4 for the second.

For VYAYTQLKQGRRHEQGTWS, the amyloid nucleation score was “inactive”.
In the case of WCISTIGWRTDGCD, the amyloid nucleation score is reported as “inactive”.
With WFNRSICSPNSHNDSSRFNQ the amyloid nucleation score was “inactive”.
For WFSRTPWYFVFRCNDDMDCS, the amyloid nucleation score was “inactive”.
With WFYICVVSFDLGIKRRYRHR the amyloid nucleation score was “inactive”.
With WGRNMKYVRTGVGLINDLVR the amyloid nucleation score was “inactive”.
In the case of WIMRS, the amyloid nucleation score is reported as “inactive”.
With WKCLRYPY the amyloid nucleation score was “inactive”.
With WLVHIHRTSSISYILCLDLG the amyloid nucleation score was “inactive”.
In the case of WMFIFRLTSTLYYHCC, the amyloid nucleation score is reported as “inactive”.
In the case of WMSLIGKNMRMIMVIKKWAL, the amyloid nucleation score is reported as “inactive”.
